Molecular target: T1, PCSK9 (Homo sapiens (Human), UniProt Q8NBP7)
T1 chain: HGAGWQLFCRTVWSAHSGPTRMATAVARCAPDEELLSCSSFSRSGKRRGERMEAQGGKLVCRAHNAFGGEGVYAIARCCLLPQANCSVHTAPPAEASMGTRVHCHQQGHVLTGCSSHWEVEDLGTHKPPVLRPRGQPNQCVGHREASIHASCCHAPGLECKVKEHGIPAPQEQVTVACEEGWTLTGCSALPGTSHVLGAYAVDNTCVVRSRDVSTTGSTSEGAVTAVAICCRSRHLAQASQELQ
Assay: BLI; pH 7.5

- Kd: 1360 nM
B1: CAP1 (protein)
chain: ADMQNLVERLERAVGRLEAVSHTSDMHRGYADSPSKAGAAPYVQAFDSLLAGPVAEYLKISKEIGGDVQKHAEMVHTGLKLERALLVTASQCQQPAENKLSDLLAPISEQIKEVITFREKNRGSKLFNHLSAVSESIQALGWVAMAPKPGPYVKEMNDAAMFYTNRVLKEYKDVDKKHVDWVKAYLSIWTELQAYIKEFHTTGLAWSKTGPVAKELSGLPSGPSAGSCPPPPPPCPPPPPVSTISCSYESASRSSLFAQINQGESITHALKHVSDDMKTHKNPALKAQSGPVRSGPKPFSAPKPQTSPSPKRATKKEPAVLELEGKKWRVENQENVSNLVIEDTELKQVAYIYKCVNTTLQIKGKINSITVDNCKKLGLVFDDVVGIVEIINSKDVKVQVMGKVPTISINKTDGCHAYLSKNSLDCEIVSAKSSEMNVLIPTEGGDFNEFPVPEQFKTLWNGQKLVTTVTEIAG

From publication PMC9816786 (2022)
